Test results from US6555522B1, “Peptides and other small molecules derived from regions of interacting proteins and uses thereof” (Mount Sinai School of Medicine of the City of New York, priority 1998, dated 2003).
Entries after “also recorded” stand apart in the source; their conditions may differ. Ends that are not written are not given here.

How the values were obtained:
[1] = target: T1, phospholipase C-β2 (PLC-β2) (Homo sapiens, UniProt Q00722); experiment: PLC assay, [3H]PIP2 hydrolysis by recombinant PLC-β2; type: biochemical; settings: for stimulation of PLC-β2 activity by peptide itself (in words): basal, no Gβγ unless stated, short peptides at 100 μM; for affinity of PLC-β2 stimulation compared with parent or comparator peptide (in words) / maximal stimulation / efficacy on PLC-β2 (in words): concentration-effect curves; for effect on Gβγ stimulation of PLC-β2 (in words): Gβγ 100 nM
T1 construct: made in house; host or cells: High 5 insect cells (baculovirus); cytosolic fraction used, not purified
T1 sequence (Q00722 whole entry): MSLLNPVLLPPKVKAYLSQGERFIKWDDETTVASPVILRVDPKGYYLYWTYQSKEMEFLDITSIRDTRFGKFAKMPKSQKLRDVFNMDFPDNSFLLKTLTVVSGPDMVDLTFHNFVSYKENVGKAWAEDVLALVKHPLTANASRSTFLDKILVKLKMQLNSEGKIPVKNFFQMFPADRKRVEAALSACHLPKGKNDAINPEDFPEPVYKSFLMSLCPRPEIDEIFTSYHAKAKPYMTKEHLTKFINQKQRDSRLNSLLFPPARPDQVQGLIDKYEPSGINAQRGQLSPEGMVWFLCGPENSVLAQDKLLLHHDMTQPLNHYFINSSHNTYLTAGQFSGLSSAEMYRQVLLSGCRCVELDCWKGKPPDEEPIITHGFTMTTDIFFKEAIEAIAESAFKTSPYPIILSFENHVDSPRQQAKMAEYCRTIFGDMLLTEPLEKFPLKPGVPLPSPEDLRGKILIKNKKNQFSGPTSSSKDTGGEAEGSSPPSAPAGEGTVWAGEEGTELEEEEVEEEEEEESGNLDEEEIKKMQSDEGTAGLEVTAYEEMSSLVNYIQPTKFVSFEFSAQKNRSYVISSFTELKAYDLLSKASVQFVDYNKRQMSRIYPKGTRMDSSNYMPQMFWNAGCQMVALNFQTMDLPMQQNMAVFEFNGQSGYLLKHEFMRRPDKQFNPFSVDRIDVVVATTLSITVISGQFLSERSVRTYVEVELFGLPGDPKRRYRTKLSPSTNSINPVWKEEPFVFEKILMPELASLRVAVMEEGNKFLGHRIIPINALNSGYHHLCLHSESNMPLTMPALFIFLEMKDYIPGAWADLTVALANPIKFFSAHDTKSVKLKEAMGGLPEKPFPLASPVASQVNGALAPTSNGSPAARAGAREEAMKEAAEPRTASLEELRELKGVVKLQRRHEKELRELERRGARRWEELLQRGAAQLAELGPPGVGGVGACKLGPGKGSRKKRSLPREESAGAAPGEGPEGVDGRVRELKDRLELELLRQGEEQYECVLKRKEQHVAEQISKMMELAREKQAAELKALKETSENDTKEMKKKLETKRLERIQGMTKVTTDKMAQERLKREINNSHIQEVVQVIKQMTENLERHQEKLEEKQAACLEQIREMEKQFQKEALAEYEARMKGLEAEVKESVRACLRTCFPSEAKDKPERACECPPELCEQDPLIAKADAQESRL
Method: Recombinant PLC-β2 was expressed in High 5 cells by infection with recombinant baculovirus. Three to four days after infection, the cells were lysed by par bombing to 600 psi. The lysate was then centrifuged, and the cytosolic fraction was collected. Approximately 10-15 μg of cytosolic fraction was used per 100 μl reaction volume. Phospholipid substrate is a mixture of [3H]PIP2 and unlabeled phospholipids. Unlabeled phospholipids, from Sigma (P-6023), are crude phospholipids from bovine brain. The total diphosphoinositide and triphosphoinositide content is 20-40%. The remainder is a mixture of phosphotidylinositol and phosphotidylserine. Phospholipids are sonicated in 10 mM Hepes pH 7.0 to form micelles. A total of 0.01 μCi of [3H]PIP2, corresponding to approximately 7000 cpm, and 5 μg of unlabeled mixed phospholipids are used per reaction.
The PLC assay was performed as previously described (De Vivo, 1994, Meth. Enzymol. 238, 131). Briefly, substrate, PLC-β2, peptide, and Gβγ subunits are mixed on ice in a 100 μl volume buffer containing 10 mM Hepes pH 7.0, 1 mM DTT, 100 mM KCl, 10 mM NaCl, 2 mM EGTA, 1 mM EDTA, and 1 mM MgCl2. Reactions are started by the addition of 25 μl 5 mM CaCl2 and incubated at 32 degrees C. for 15 minutes. Reactions are stopped by the addition of 1 ml CMH (chloroform:methanol:H2O=100:100:1 by volume) and 250 μl 10 mM EDTA. After extraction, 400 μl aqueous phase is counted using a Beckman scintillation counter. All experiments were repeated at least thrice with very similar results. For concentration-effect curves, typical experiments are shown.

[2] = target: T2, adenylyl cyclase 1 (AC1) (Bos taurus, UniProt P19754); experiment: Adenylyl cyclase assay, recombinant AC1 in Sf9 cell membranes; type: biochemical, bovine; settings: for inhibition of Ca2+/CaM-stimulated AC1 activity by peptide alone (in words): CaM 100 nM; for blockade of Gβγ inhibition of Ca2+/CaM-stimulated AC1: CaM 100 nM plus Gβγ 30 nM
T2 construct: made in house; host or cells: Sf9 cells (baculovirus); membranes used
T2 sequence (P19754 whole entry): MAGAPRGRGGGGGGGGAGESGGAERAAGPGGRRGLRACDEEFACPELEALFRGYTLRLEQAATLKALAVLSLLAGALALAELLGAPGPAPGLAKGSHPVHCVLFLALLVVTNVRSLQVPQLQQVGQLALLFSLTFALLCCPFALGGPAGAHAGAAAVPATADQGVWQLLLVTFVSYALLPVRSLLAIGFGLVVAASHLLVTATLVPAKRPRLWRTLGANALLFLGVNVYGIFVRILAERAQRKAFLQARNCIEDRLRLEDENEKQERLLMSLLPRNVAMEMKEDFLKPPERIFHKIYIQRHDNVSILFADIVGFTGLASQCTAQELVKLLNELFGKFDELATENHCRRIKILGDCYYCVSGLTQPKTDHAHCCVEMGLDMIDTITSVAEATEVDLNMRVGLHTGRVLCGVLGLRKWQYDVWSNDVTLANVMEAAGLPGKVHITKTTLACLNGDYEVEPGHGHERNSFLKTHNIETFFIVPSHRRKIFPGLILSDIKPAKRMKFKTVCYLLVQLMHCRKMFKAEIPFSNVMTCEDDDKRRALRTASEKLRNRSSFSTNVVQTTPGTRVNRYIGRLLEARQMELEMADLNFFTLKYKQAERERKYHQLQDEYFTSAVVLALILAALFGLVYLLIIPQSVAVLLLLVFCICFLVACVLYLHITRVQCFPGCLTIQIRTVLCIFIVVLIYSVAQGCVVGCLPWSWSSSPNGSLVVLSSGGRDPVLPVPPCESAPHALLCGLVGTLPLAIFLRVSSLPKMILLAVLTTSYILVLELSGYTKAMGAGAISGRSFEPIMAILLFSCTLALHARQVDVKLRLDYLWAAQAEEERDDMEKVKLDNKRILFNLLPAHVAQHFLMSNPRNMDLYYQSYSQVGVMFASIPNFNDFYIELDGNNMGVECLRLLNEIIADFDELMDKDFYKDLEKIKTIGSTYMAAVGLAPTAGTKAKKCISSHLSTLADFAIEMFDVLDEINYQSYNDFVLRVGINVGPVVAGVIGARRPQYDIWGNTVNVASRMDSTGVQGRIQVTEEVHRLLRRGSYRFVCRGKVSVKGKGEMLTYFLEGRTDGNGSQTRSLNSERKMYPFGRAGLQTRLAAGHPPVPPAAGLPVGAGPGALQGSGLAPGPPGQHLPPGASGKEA
From the text: (§1) Expression of G-Protein Subunits And Adenylyl Cyclases. Gβγ was purified from bovine brain (Dingus et al., 1994, Meth. Enzymol. 237, 457-471). Q227L-Gαs was expressed in rabbit reticulocyte lysates. AC2 was expressed in Sf9 cells by infection with recombinant baculovirus (Jacobowitz and Iyengar, 1994, Proc. Natl. Acad. Sci. U.S.A. 91, 10630-10634). AC2 assays have been described (Chen et al., 1995, Science 268, 1166-1169). Bovine AC1 (Jacobowitz et al., 1993, J. Biol. Chem. 268, 3829-3832) was epitope tagged at the N terminus with the FLAG epitope (Jacobowitz and Iyengar, 1994, Proc. Natl. Acad. Sci. U.S.A. 91, 10630-10634) and expressed in Sf9 cells by baculovirus infection.
(§2) Adenylyl Cyclase Assays. AC2 assays have been described (Chen et al., 1995, Science 268, 1166-1169). When required the peptides were mixed with adenylyl cyclase containing membranes and held on ice for 10 min prior to assays. Approximately 1-4 μg of AC2 Sf9 cell membranes per assay tube was used. All assays contained a mixture of protease inhibitors. The final concentration of each inhibitor was leupeptin at 3.2 μg/ml, aprotinin at 2 μg/ml, phenanthroline at 1.0 mM, and phenylmethylsulfonyl fluoride at 1.0 mM. To study Gβγ inhibition, AC1-containing Sf9 cell membranes (1-4 μg per assay tube) was used. In these assays, in addition to the other standard reagents, the assay mixture contained either 1 mM EGTA or 50 μM CaCl2 plus 100 nM calmodulin (CaM). All experiments were repeated two or more times with qualitatively similar results. Typical experiments are shown. Values are mean±SD of triplicate determinations.

[3] = target: T3, adenylyl cyclase 2 (AC2) (Rattus norvegicus, UniProt P26769); experiment: Adenylyl cyclase assay, recombinant AC2 in Sf9 cell membranes; type: biochemical; settings: αs* 2 nM plus Gβγ 50 nM; TTN at 100 μM
T3 construct: made in house; host or cells: Sf9 cells (baculovirus); membranes used
T3 sequence (P26769 whole entry): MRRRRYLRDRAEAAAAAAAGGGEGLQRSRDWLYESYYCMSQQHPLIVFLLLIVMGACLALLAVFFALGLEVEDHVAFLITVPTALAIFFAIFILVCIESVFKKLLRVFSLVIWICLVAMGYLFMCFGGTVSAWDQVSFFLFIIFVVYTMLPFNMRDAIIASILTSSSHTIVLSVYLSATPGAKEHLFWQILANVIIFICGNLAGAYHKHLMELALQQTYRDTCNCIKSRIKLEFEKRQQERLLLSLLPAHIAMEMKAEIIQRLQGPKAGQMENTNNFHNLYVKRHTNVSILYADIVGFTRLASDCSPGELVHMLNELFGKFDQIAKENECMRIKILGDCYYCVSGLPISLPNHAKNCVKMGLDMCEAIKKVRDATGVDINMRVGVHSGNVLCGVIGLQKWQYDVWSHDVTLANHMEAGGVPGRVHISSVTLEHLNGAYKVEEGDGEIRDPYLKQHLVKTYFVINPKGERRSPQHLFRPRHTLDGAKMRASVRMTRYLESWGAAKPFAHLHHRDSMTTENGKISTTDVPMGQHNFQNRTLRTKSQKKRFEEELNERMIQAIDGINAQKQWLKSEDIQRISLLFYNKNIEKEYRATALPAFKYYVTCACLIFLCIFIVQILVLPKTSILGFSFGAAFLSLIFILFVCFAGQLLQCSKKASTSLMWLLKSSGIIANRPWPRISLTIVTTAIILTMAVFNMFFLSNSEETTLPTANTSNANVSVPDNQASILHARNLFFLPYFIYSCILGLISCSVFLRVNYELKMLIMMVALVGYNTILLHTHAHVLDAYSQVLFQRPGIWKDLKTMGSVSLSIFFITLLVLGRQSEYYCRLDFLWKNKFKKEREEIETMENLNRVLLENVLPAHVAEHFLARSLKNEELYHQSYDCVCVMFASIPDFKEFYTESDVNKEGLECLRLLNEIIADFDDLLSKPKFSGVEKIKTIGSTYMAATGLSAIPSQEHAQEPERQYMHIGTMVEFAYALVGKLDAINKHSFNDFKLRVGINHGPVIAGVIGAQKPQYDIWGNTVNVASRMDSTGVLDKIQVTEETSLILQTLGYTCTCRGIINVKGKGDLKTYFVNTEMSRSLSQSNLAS
From the text: as §1
as §2, with “In these assays, in addition to the other standard reagents, the assay mixture contained either 1 mM EGTA or 50 μM CaCl2 plus 100 nM calmodulin (CaM). All experiments were repeated two or more times with qualitatively similar results. Typical experiments are shown. Values are mean±SD of triplicate determinations.” left out

[4] = target: T4, PLC-β2 (Homo sapiens, UniProt Q00722); experiment: Fluorescent resonance energy transfer binding of DABMI-labeled peptide to Cascade Blue-labeled PLC-β2; settings: FRET
T4 construct: made in house; host or cells: Sf9 cells; purified as in Runnel et al. 1996
T4 sequence (Q00722 whole entry): as the sequence (Q00722 whole entry) above
Method: For fluorescent resonance energy transfer experiments, recombinant PLC-β2 was expressed in Sf9 cells and purified as described (Runnel et al., 1996, Biochem. 35, 16824) and labeled with the amine-reactive probe, Cascade Blue acetyl azide (Molecular Probes, Eugene Oreg.) by raising the pH to 8.0 and adding a 4-fold excess of probe from a freshly prepared concentrated DMF solution. The reaction was kept on ice for 30 minutes before extensive dialysis in a solution comprising 20 mM Hepes, 0.16 M NaCl, 1 mM DTT, pH 7.2 to remove excess probe. Peptides were labeled with DABMI (4-dimethyl-5aminophenylazophenyl-4′-maleimeide) using an equimolar amount of dye in the absence of reducing agents. The reaction was allowed to proceed for 30 minutes at room temperature before quenching with 5 mM DTT. The final labeling ratios, as determined by absorption, were 1:1 for CB-PLC-β2 and 0.8 for the two DABMI-peptides. Fluorescence spectra were taken on an ISS-PCL (ISS Champaign, Ill.) photon counting spectrofluorometer using a 3×3 mm cuvette and exciting at 380 nm and scanning from 400-560 nm.

“FLLT: unrelated peptide encoding region 660-688 of adenylyl cyclase 6, same overall charge as Gβ86-105 (KYSRKVDPRFGAYVACALLVFCFICFIQL; UniProt O43306 660-688, looked up, fragment) [reference compound]” was tested, and the “stimulation of PLC-β2 activity by peptide itself (in words)” value (shortened to “stimulation of PLC-β2 activity”) [1] was “no measurable effects”.
In the case of “Gβ89-101: thirteen amino acid peptide encoding Gβ residues 89-101 (SEQ ID NO:7) (KVHAIPLRSSWVM; listed as Homo sapiens)”, the “stimulation of PLC-β2 activity” value [1] was “did stimulate”.
With “Gβ96-98: three amino acid peptide encoding Gβ residues 96-98 (RSS)” the “stimulation of PLC-β2 activity” value [1] was “did not stimulate”.
With “Gβ96-101: six amino acid peptide encoding Gβ residues 96-101 (SEQ ID NO:8) (RSSWVM; listed as Homo sapiens)” the “stimulation of PLC-β2 activity” value [1] was “did stimulate” and the “affinity of PLC-β2 stimulation compared with parent or comparator peptide (in words)” value [1] was “considerably lower affinity”.
With “H91A: Gβ86-105 peptide with H91A substitution (TTNKVAAIPLRSSWVMTCAY)” the “affinity of PLC-β2 stimulation compared with parent or comparator peptide (in words)” value [1] was “decreased the affinity” and the “maximal stimulation / efficacy on PLC-β2 (in words)” value (“maximal stimulation / efficacy” below) [1] was “did not affect maximal stimulation”.
In the case of “K89A, H91A, and R96A triple substituted peptide: Gβ86-105 peptide with K89, H91 and R96 substituted simultaneously (TTNAVAAIPLASSWVMTCAY; UniProt P62873 86-105, looked up, variant K89A H91A R96A)”, the “effect on Gβγ stimulation of PLC-β2 (in words)” value [1] was “did not affect” and the “stimulation of PLC-β2 activity” value [1] was “did not stimulate”.
For “K89A: Gβ86-105 peptide with K89A substitution (TTNAVHAIPLRSSWVMTCAY)”, the “affinity of PLC-β2 stimulation compared with parent or comparator peptide (in words)” value [1] was “decreased the affinity” and the “maximal stimulation / efficacy” value [1] was “did not affect maximal stimulation”.
In the case of “R96A: Gβ86-105 peptide with R96A substitution (TTNKVHAIPLASSWVMTCAY)”, the “affinity of PLC-β2 stimulation compared with parent or comparator peptide (in words)” value [1] was “decreased the affinity; also recorded: large shift in affinity” and the “maximal stimulation / efficacy” value [1] was “did not affect maximal stimulation”.
With “S97,98R Gβ86-105 peptide: Gβ86-105 peptide with both serines 97 and 98 substituted with arginine (TTNKVHAIPLRRRWVMTCAY)” the “increase in affinity of PLC-β2 stimulation versus Gβ86-105 peptide” value ([1]; substituted Gβ86-105 peptides) was “five-fold increase”.
“S97, 98C: Gβ86-105 peptide with serines 97 and 98 substituted with cysteine (TTNKVHAIPLRCCWVMTCAY)” was tested, and the “affinity of PLC-β2 stimulation compared with parent or comparator peptide (in words)” value [1] was “greatly reduced affinity”.
With “S97, 98D Gβ96-101: six amino acid Gβ96-101 peptide with serines 97 and 98 substituted with Asp (RDDWVM)” the “stimulation of PLC-β2 activity” value [1] was “did not stimulate”.
In the case of “S97, 98D: Gβ86-105 peptide with serines 97 and 98 substituted (D per FIG. 7C legend; text says asparagine) (TTNKVHAIPLRDDWVMTCAY; not fully specified)”, the “stimulation of PLC-β2 activity” value [1] was “inactive”.
“S97R substituted peptide: six amino acid Gβ96-101 peptide with arginine at position 97 (SEQ ID NO:10) (RRSWVM; listed as Homo sapiens)” was tested, and the “affinity of PLC-β2 stimulation compared with parent or comparator peptide (in words)” value [1] was “increase affinity; also recorded: higher affinity”.
“S98R Gβ96-101: six amino acid Gβ96-101 peptide with arginine substituted at position 98 (RSRWVM; UniProt P62873 96-101, looked up, variant S98R)” was tested, and the “affinity of PLC-β2 stimulation compared with parent or comparator peptide (in words)” value [1] was “increase affinity”.
With “m-GGL: Gβ115-135 peptide with Tyr-124 converted to Val (GGLDNICSIVNLKTREGNVRV)” the “inhibition of Ca2+/CaM-stimulated AC1 activity by peptide alone (in words)” value [2] was “did not inhibit the AC1 activity as extensively”, the “blockade of Gβγ inhibition of Ca2+/CaM-stimulated AC1” value [2] was “no effect” and the “effect on Gβγ stimulation of PLC-β2 (in words)” value [1] was “inactive”. The “inhibition of Gβγ-stimulated AC2 activity” value [3] was “less effective”.
“m-TTN: Gβ86-105 peptide with Met-101 substituted by Asn (TTNKVHAIPLRSSWVNTCAY)” was tested, and the “binding to PLC-β2 (in words)” value [4] was “did not display measurable binding”, the “inhibition of Ca2+/CaM-stimulated AC1 activity by peptide alone (in words)” value [2] was “greatly reduced capacity to inhibit” and the “blockade of Gβγ inhibition of Ca2+/CaM-stimulated AC1” value [2] was “did not affect”. The “stimulation of PLC-β2 activity” value [1] was “not capable of activating” and the “inhibition of Gβγ-stimulated AC2 activity” value [3] was “much less efficacious”.
